Results on five molecules are retold here after patent publication US20230416330A1, “Optimized GIP Peptide Analogues” (Antag Therapeutics ApS, priority 2019, published 2023).

Test [1] deals with T1, human GIP receptor (human, UniProt P48546 22-466).
T1 sequence (looked up): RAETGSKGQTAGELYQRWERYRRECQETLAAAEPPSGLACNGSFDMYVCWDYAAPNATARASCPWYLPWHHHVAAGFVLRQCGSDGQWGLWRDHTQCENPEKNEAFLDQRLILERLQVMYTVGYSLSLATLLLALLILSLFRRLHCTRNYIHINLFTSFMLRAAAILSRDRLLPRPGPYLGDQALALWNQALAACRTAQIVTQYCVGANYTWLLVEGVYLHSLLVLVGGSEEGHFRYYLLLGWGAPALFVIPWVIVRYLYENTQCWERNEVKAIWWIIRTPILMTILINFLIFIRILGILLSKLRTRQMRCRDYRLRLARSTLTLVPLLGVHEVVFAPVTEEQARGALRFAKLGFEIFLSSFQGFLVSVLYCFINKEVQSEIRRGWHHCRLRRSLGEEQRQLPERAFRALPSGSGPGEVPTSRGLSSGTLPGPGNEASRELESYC
Nature of the test: cell-based or functional assay.

Test [2] concerns the target T1, human GIP receptor. Description: cell-based or functional assay. This is another data set of the same source.

Starred links: 1 amine or outer side, 2 acyl side, 3 side chain; linkers in the order of their positions; H or OH if unused. Groups on a side chain read outwards from the residue. No end group written: not given here. *: point of attachment. C18 diacid = O=C(O)CCCCCCCCCCCCCCCCC(=O)*; C16 diacid = O=C(O)CCCCCCCCCCCCCCC(=O)*; γGlu = O=C(O)[C@H](CCC(=O)[*:2])N[*:1]; AEEA = NCCOCCOCC(=O)O

B1: AT437 (peptide)
peptide: SGTFISDYSIAMDKIK([AEEA-AEEA-γGlu-C18 diacid])QQDFVNWLLAQKPSSGAPPPS-OH
modifications: N-terminus assumed
SMILES: CC[C@H](C)[C@H](NC(=O)[C@H](CO)NC(=O)[C@H](Cc1ccc(O)cc1)NC(=O)[C@H](CC(=O)O)NC(=O)[C@H](CO)NC(=O)[C@@H](NC(=O)[C@H](Cc1ccccc1)NC(=O)[C@@H](NC(=O)CNC(=O)[C@@H](N)CO)[C@@H](C)O)[C@@H](C)CC)C(=O)N[C@@H](C)C(=O)N[C@@H](CCSC)C(=O)N[C@@H](CC(=O)O)C(=O)N[C@@H](CCCCN)C(=O)N[C@H](C(=O)N[C@@H](CCCCNC(=O)COCCOCCNC(=O)COCCOCCNC(=O)CC[C@H](NC(=O)CCCCCCCCCCCCCCCCC(=O)O)C(=O)O)C(=O)N[C@@H](CCC(N)=O)C(=O)N[C@@H](CCC(N)=O)C(=O)N[C@@H](CC(=O)O)C(=O)N[C@@H](Cc1ccccc1)C(=O)N[C@H](C(=O)N[C@@H](CC(N)=O)C(=O)N[C@@H](Cc1c[nH]c2ccccc12)C(=O)N[C@@H](CC(C)C)C(=O)N[C@@H](CC(C)C)C(=O)N[C@@H](C)C(=O)N[C@@H](CCC(N)=O)C(=O)N[C@@H](CCCCN)C(=O)N1CCC[C@H]1C(=O)N[C@@H](CO)C(=O)N[C@@H](CO)C(=O)NCC(=O)N[C@@H](C)C(=O)N1CCC[C@H]1C(=O)N1CCC[C@H]1C(=O)N1CCC[C@H]1C(=O)N[C@@H](CO)C(=O)O)C(C)C)[C@@H](C)CC
Regarding B1, in the test with human GIP receptor [1], the “cAMP antagonism nM (IC50, CisBio assay)” value stood at 35.5 nM and the “cAMP antagonism pIC50 (CisBio assay)” value amounted to 7.5.

B2: AT158 (peptide)
peptide: EGTFISDYSIAMDKIK(C16 diacid)QQDFVNWLLAQK-NH2
modifications: N-terminus assumed
SMILES: CC[C@H](C)[C@H](NC(=O)[C@H](CO)NC(=O)[C@H](Cc1ccc(O)cc1)NC(=O)[C@H](CC(=O)O)NC(=O)[C@H](CO)NC(=O)[C@@H](NC(=O)[C@H](Cc1ccccc1)NC(=O)[C@@H](NC(=O)CNC(=O)[C@@H](N)CCC(=O)O)[C@@H](C)O)[C@@H](C)CC)C(=O)N[C@@H](C)C(=O)N[C@@H](CCSC)C(=O)N[C@@H](CC(=O)O)C(=O)N[C@@H](CCCCN)C(=O)N[C@H](C(=O)N[C@@H](CCCCNC(=O)CCCCCCCCCCCCCCC(=O)O)C(=O)N[C@@H](CCC(N)=O)C(=O)N[C@@H](CCC(N)=O)C(=O)N[C@@H](CC(=O)O)C(=O)N[C@@H](Cc1ccccc1)C(=O)N[C@H](C(=O)N[C@@H](CC(N)=O)C(=O)N[C@@H](Cc1c[nH]c2ccccc12)C(=O)N[C@@H](CC(C)C)C(=O)N[C@@H](CC(C)C)C(=O)N[C@@H](C)C(=O)N[C@@H](CCC(N)=O)C(=O)N[C@@H](CCCCN)C(N)=O)C(C)C)[C@@H](C)CC
B2: in the test with human GIP receptor [1], the “cAMP antagonism nM (IC50, CisBio assay)” value was 14.3 nM and the “cAMP antagonism pIC50 (CisBio assay)” value came out at 7.8. In the test with human GIP receptor [2], the “nM (Kb, Schild analysis, cAMP)” value stood at 3.7 nM and the “pKb (Schild analysis, cAMP)” value came to 8.4.

B3: AT482 (peptide)
peptide: EGTFISEYSIAMEKIK(C16 diacid)QQEFVQWLLAQK-NH2
modifications: N-terminus assumed
SMILES: CC[C@H](C)[C@H](NC(=O)[C@H](CO)NC(=O)[C@H](Cc1ccc(O)cc1)NC(=O)[C@H](CCC(=O)O)NC(=O)[C@H](CO)NC(=O)[C@@H](NC(=O)[C@H](Cc1ccccc1)NC(=O)[C@@H](NC(=O)CNC(=O)[C@@H](N)CCC(=O)O)[C@@H](C)O)[C@@H](C)CC)C(=O)N[C@@H](C)C(=O)N[C@@H](CCSC)C(=O)N[C@@H](CCC(=O)O)C(=O)N[C@@H](CCCCN)C(=O)N[C@H](C(=O)N[C@@H](CCCCNC(=O)CCCCCCCCCCCCCCC(=O)O)C(=O)N[C@@H](CCC(N)=O)C(=O)N[C@@H](CCC(N)=O)C(=O)N[C@@H](CCC(=O)O)C(=O)N[C@@H](Cc1ccccc1)C(=O)N[C@H](C(=O)N[C@@H](CCC(N)=O)C(=O)N[C@@H](Cc1c[nH]c2ccccc12)C(=O)N[C@@H](CC(C)C)C(=O)N[C@@H](CC(C)C)C(=O)N[C@@H](C)C(=O)N[C@@H](CCC(N)=O)C(=O)N[C@@H](CCCCN)C(N)=O)C(C)C)[C@@H](C)CC
Regarding B3, in the test with human GIP receptor [1], the “cAMP antagonism nM (IC50, CisBio assay)” value was 14.1 nM and the “cAMP antagonism pIC50 (CisBio assay)” value is 7.9.

B4: AT364 (peptide)
peptide: EGTFISDYSIAMDKIK(C16 diacid)QQDFVNWLLAQKPSSGAPPPS-OH
modifications: N-terminus assumed
SMILES: CC[C@H](C)[C@H](NC(=O)[C@H](CO)NC(=O)[C@H](Cc1ccc(O)cc1)NC(=O)[C@H](CC(=O)O)NC(=O)[C@H](CO)NC(=O)[C@@H](NC(=O)[C@H](Cc1ccccc1)NC(=O)[C@@H](NC(=O)CNC(=O)[C@@H](N)CCC(=O)O)[C@@H](C)O)[C@@H](C)CC)C(=O)N[C@@H](C)C(=O)N[C@@H](CCSC)C(=O)N[C@@H](CC(=O)O)C(=O)N[C@@H](CCCCN)C(=O)N[C@H](C(=O)N[C@@H](CCCCNC(=O)CCCCCCCCCCCCCCC(=O)O)C(=O)N[C@@H](CCC(N)=O)C(=O)N[C@@H](CCC(N)=O)C(=O)N[C@@H](CC(=O)O)C(=O)N[C@@H](Cc1ccccc1)C(=O)N[C@H](C(=O)N[C@@H](CC(N)=O)C(=O)N[C@@H](Cc1c[nH]c2ccccc12)C(=O)N[C@@H](CC(C)C)C(=O)N[C@@H](CC(C)C)C(=O)N[C@@H](C)C(=O)N[C@@H](CCC(N)=O)C(=O)N[C@@H](CCCCN)C(=O)N1CCC[C@H]1C(=O)N[C@@H](CO)C(=O)N[C@@H](CO)C(=O)NCC(=O)N[C@@H](C)C(=O)N1CCC[C@H]1C(=O)N1CCC[C@H]1C(=O)N1CCC[C@H]1C(=O)N[C@@H](CO)C(=O)O)C(C)C)[C@@H](C)CC
With B4, in the test with human GIP receptor [1], the “cAMP antagonism nM (IC50, CisBio assay)” value came to 1.12 nM and the “cAMP antagonism pIC50 (CisBio assay)” value was found to be 9. Besides, in the test with human GIP receptor [2], the “nM (Kb, Schild analysis, cAMP)” value stood at 0.77 nM and the “pKb (Schild analysis, cAMP)” value stood at 9.1.

Turning to EGTFISDYSIAMDKIHQQDFVNWLLAQK [GIP(3-30)], in the test with human GIP receptor [1], the “cAMP antagonism nM (IC50, CisBio assay)” value worked out at 33.8 nM and the “cAMP antagonism pIC50 (CisBio assay)” value came to 7.5. For the same molecule, in the test with human GIP receptor [2], the “nM (Kb, Schild analysis, cAMP)” value came out at 3.5 nM and the “pKb (Schild analysis, cAMP)” value stood at 8.5.
